Data from patent US20230056815A1 (VIELA BIO, published 2023).

T1: FLT3 on RS4;11 cells (human, UniProt P36888 27-993)
T1 sequence (looked up): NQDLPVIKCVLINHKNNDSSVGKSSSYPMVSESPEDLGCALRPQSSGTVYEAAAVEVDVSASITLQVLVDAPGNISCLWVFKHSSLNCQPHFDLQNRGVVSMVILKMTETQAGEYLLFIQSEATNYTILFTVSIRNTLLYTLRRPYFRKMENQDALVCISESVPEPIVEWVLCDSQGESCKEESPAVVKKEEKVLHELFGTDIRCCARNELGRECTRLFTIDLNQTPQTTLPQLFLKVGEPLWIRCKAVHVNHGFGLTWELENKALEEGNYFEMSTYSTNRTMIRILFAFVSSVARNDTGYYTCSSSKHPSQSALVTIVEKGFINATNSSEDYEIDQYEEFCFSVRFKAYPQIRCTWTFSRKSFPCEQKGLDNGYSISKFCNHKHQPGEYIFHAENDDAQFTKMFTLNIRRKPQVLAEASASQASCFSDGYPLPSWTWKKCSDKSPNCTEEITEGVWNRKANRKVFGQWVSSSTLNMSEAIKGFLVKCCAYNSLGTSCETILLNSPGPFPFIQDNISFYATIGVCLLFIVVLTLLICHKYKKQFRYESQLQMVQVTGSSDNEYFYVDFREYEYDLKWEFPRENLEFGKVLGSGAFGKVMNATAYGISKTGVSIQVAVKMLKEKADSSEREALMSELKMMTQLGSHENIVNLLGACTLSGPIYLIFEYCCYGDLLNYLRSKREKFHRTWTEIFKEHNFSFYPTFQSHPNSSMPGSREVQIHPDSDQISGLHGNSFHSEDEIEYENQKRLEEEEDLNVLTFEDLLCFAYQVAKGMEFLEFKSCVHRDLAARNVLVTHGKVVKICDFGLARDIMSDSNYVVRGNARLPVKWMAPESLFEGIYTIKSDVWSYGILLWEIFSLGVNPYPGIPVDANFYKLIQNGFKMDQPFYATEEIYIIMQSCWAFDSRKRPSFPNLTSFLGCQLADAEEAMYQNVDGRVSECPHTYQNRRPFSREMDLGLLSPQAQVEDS

T2: hFLT3 receptor (human, UniProt P36888 27-541, limits assumed)
T2 construct: The construct is not described
T2 sequence (looked up): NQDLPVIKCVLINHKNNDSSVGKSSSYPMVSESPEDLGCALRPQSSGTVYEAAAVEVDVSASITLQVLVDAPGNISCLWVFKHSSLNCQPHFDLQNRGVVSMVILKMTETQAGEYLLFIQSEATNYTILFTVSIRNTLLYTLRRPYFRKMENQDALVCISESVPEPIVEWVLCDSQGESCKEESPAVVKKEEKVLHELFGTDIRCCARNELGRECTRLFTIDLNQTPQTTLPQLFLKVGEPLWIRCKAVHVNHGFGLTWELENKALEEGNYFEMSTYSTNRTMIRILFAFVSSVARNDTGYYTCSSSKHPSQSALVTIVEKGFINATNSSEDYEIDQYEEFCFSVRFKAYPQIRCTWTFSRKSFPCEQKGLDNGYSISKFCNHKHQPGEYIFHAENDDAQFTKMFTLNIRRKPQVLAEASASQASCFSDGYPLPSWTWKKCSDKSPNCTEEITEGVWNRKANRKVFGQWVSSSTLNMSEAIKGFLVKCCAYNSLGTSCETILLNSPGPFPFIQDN

B1: CAT5D9 Fab (Fab, V domains shown)
VH: QVQLVQSGAEVKKPGSSVKVSCKISGGTFSSYALSWVRQAPGQGLEWMGGIIPVFRTASYAQKFQGRVTITVDESASTGYIELSSLKSEDTATYYCASNNYVWGSYRFWGQGTTVTVSS
VL: NFMLTQPHSVSESPGKTVTISCTRTSGNIAGYFVQWYQQRPGSSPTTVIYEDYQRPSGVPDRFSGSIDRSSNSASLTISGLKPDDEADYYCQSYDDTSQGVFGAGTKVTVL
notes: also called 5D9 parent
B2: human soluble FLT3L (recombinant huFLT3L) (ligand, UniProt P49771 27-184, looked up)
chain: TQDCSFQHSPISSDFAVKIRELSDYLLQDYPVTVASNLQDEELCGGLWRLVLAQRWMERLKTVAGSKMQGLLERVNTEIHFVTKCAFQPPPSCLRFVQTNISRLLQETSEQLVALKPWITRQNFSRCLELQCQPDSSTLPPPWSPRPLEATAPTAPQP
notes: extracellular domain; also called rhuFLT3L; hFLT3L

Experiments:
[1] = target: T3, cynomolgus monkey soluble FLT3L (cynomolgus monkey); assay: Biacore, Fab
T3 construct: extracellular domain; also called cyno sFLT3L; cyno FLT3L

[2] = target: B2; assay: Biacore, Fab
[3] = target: T3, cynomolgus monkey soluble FLT3L; assay: Biacore, Fab, kinetic (koff/kon)
[4] = target: B2; assay: Biacore, Fab, kinetic (koff/kon)
[5] = target: T3, cynomolgus monkey soluble FLT3L; assay: Biacore, Fab, steady-state
[6] = target: B2; assay: Biacore, Fab, steady-state
[7] = target: B2; assay: Biacore
[8] = target: T3, cynomolgus monkey soluble FLT3L; assay: Biacore, Fab; remark: listed apart in the source
[9] = target: B2; assay: Biacore, Fab; remark: listed apart in the source
FLT3 on RS4;11 cells [10] = target: T1, FLT3 on RS4;11 cells; assay: cell-based or functional assay
FLT3 on RS4;11 cells [11] = target: T1, FLT3 on RS4;11 cells; assay: flow cytometry: biotinylated rhuFLT3L on RS4;11 cells, detected with BV421-streptavidin
hFLT3 receptor = target: T2, hFLT3 receptor; assay: Biacore

| koff [1] | kon [1] | koff [2] | kon [2] | Kd [3] | Kd [4] | Kd [5] | Kd [6] | Kd [7] | koff [7] | kon [7] | fold KD against the remaining lead antibodies [8] | fold KD against the remaining lead antibodies [9] | fold decrease in Allophycocyanin (APC) MFI, an indicator of FLT3 expression, on RS4;11 cells (FLT3 on RS4;11 cells [10]) | EC50 (read off the curve) (FLT3 on RS4;11 cells [11]) | Kd (hFLT3 receptor) | koff (hFLT3 receptor) | kon (hFLT3 receptor) | Binder |
| --- | --- | --- | --- | --- | --- | --- | --- | --- | --- | --- | --- | --- | --- | --- | --- | --- | --- | --- |
| 0.0707 s⁻¹ | 61000 M⁻¹ s⁻¹ | 0.0707 s⁻¹ | 61000 M⁻¹ s⁻¹ | 1160 nM | 1160 nM | 1610 nM | 1600 nM | 1160 nM | 0.0707 s⁻¹ | 60000 M⁻¹ s⁻¹ | > 50 fold | > 50 fold | – | – | – | – | – | B1 |
| – | – | – | – | – | – | – | – | – | – | – | – | – | 25 fold | ~100 pM | 22.3 nM | 0.00812 s⁻¹ | 360000 M⁻¹ s⁻¹ | B2 |
